{"source": "paper PMC6768288", "about": "“Biochemical and structural characterization of tyrosine aminotransferase suggests broad substrate specificity and a two‐state folding mechanism in Leishmania donovani” (FEBS Open Bio, 2019)", "proteins": {"B1": {"name": "LdTAT (Leishmania donovani) (protein)", "chain": "MTIDTQAAPAAQTLKAGNATGSLTEERREVEQQRAAENTSFRRIASSKHAQRTLQPLNNLTDNMKPSRSTKSNLRLSIGDPTVDGNLKTPDIVTEAMVDIVRSGKFNGYPPTVGADNLRQVVSTYWRRFCQTKSRQEALKWENVIITSGVSQAIVLALTALCNEGDNILVCAPSFPHYKSVCDSYGIECRYYYLDPSKSWECDLRAAAGMVDSHTKAFVIINPSNPCGSNFSRAHVSDIIDFCQQHQIPLISDEIYAEMVLNNGIFTSVADFDTNVPRLILGGTAKYQVCPGWRVGWSILIDPMNVAGDWAVGMERLTQLIAGVNSICQEAIARTLLKCPAECTEHIVTQLEAGAKVYARLLEHDIGISMEAPQASMFVMLKLNLSYFQDLKSDMEFYEKLLDEENVQVLPGEIFGMSGFLRATVSRPSAVLNEAVDRIIEFCERHKK", "notes": "full-length ORF 1347 bp (448 residues from ORF length) amplified from L. donovani genomic DNA; pET28a(+) BamHI/HindIII, His-tagged, E. coli BL21, Ni-NTA"}}, "experiment_in_all_cases": "purified protein", "assay_type_in_all_cases": "biochemical, Leishmania donovani", "key": {"purified protein [1]": {"substrate": "CC(=O)C(=O)O", "details": "co-substrate Tyr 4 mM; sodium pyruvate 0-200 mM; PLP 30 μM, 37 °C"}, "purified protein [2]": {"substrate": "CSCCC(=O)C(=O)O", "details": "co-substrate Tyr 4 mM; KMB 0-4.5 μM; PLP 30 μM, 37 °C"}, "purified protein [3]": {"substrate": "Cc1ncc(COP(=O)(O)O)c(C=O)c1O", "details": "tyrosine-sodium pyruvate as substrates; covalent internal aldimine with K286; varied: cofactor"}, "purified protein [4]": {"substrate": "N[C@@H](Cc1c[nH]c2ccccc12)C(=O)O", "details": "co-substrate sodium pyruvate 100 mM; Trp 0-7 mM; PLP 30 μM, 37 °C"}, "purified protein [5]": {"substrate": "N[C@@H](Cc1ccc(O)cc1)C(=O)O", "details": "co-substrate sodium pyruvate 100 mM; Tyr 0-7 mM; PLP 30 μM, 37 °C"}, "purified protein [6]": {"substrate": "N[C@@H](Cc1ccccc1)C(=O)O", "details": "co-substrate sodium pyruvate 100 mM; Phe 0-7 mM; PLP 30 μM, 37 °C"}}}
{"protein": "B1", "values": [{"measurement": "Km", "setting": "purified protein [1]", "value": "42.67 ± 0.38", "unit": "mM"}, {"measurement": "Vmax", "setting": "purified protein [1]", "value": 8600, "unit": "µM/min/mg"}, {"measurement": "Km", "setting": "purified protein [2]", "value": "0.0008103 ± 0.00011", "unit": "mM"}, {"measurement": "Vmax", "setting": "purified protein [2]", "value": 1850, "unit": "µM/min/mg"}, {"measurement": "Km", "setting": "purified protein [3]", "value": "0.02359 ± 0.00399", "unit": "mM"}, {"measurement": "Km", "setting": "purified protein [4]", "value": "5.055 ± 0.42", "unit": "mM"}, {"measurement": "Vmax", "setting": "purified protein [4]", "value": 19900, "unit": "µM/min/mg"}, {"measurement": "Km", "setting": "purified protein [5]", "value": "3.5 ± 0.90", "unit": "mM"}, {"measurement": "Vmax", "setting": "purified protein [5]", "value": 11700, "unit": "µM/min/mg"}, {"measurement": "Km", "setting": "purified protein [6]", "value": "3.752 ± 0.96", "unit": "mM"}, {"measurement": "Vmax", "setting": "purified protein [6]", "value": 19800, "unit": "µM/min/mg"}]}
